# Experimental data taken from patent US20260227416A1 (published 2026).
# T1: CD20 on SU-DHL4 cells (UniProt P11836 1-297, limits assumed)
# T1 sequence (looked up): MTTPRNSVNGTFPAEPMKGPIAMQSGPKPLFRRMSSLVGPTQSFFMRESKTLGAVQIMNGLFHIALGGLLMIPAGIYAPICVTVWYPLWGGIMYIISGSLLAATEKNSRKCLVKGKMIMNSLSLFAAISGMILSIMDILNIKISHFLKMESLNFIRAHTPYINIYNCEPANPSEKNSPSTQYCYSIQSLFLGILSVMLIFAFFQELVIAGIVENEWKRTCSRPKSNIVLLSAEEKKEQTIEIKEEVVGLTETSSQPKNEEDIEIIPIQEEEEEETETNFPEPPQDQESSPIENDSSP
# Biological target: T1, CD20 on SU-DHL4 cells
# Experiment: cell-based or functional assay
binder,measurement,value
"Rituximab chimeric antibody (antibody, human IgG1, kappa, V domains shown) VH: VQLQQPGAELVKPGASVKMSCKASGYTFTSYNMHWVKQTPGRGLEWIGAIYPGNGDTSYNQKFKGKATLTADKSSSTAYMQLSSLTSEDSAVYYCARSTYYGGDWYFNVWGAGTTVTVSA VL: QIVLSQSPAILSASPGEKVTMTCRASSSVSYIHWFQQKPGSSPKPWIYATSNLASGVPVRFSGSGSGTSYSLTISRVEAEDAATYYCQQWTSNPPTFGGGTKLEIKR","EC50 values of target cell killing (ADCC, SU-DHL4 target cells)",~10 ng/mL
